Source: the supplement of paper PMC10567573

B1: POMT2 (parent)
chain: YHEAPMTRKHYQVTGYGINGTGDS

Variants of: B1
Assay: protein stability index of a GFP-peptide fusion (GPS, HEK-293T) (PSI 1-6); higher = more stable
Conditions: c terminus: a fixed tail appended
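Note: lentivirally expressed fusions sorted by FACS into six bins by GFP to DsRed ratio, PSI derived from sequencing read proportions per bin multiplied by bin number.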

Protein stability index, by site and new letter:
A4: R 2.45; Y 3.11; L 1.91; N 1.69; I 2.42; M 1.49; P 1.96; K 2.18; V 2.96; S 1.92; T 2.21; Q 2.68; W 2.2
R8: N 2.82; S 2.6; C 1.95; W 1.62; F 2.09; L 3.16; K 2.44; I 1.94; M 2.68; D 3.19; E 3; V 2.55; P 2.31; Q 2.86; G 2.74; A 2.61; H 3.02; T 2.44; Y 2.09
Q12: S 2.22; K 2.24; I 1.97; R 1.88; F 2.28; A 1.96; M 2.34; N 2.85; D 3.05; P 2.37; L 2.29; E 2.41; W 1.91; G 2.08; H 2.07; V 2.36; Y 2.46; T 2.16; C 2.08
H10: P 2.37; M 1.94; S 2.36; D 3.54; Q 2.87; R 1.94; A 1.86; K 2.58; L 1.51; W 2.49; F 2.5; G 3.05; I 2.79; V 1.91; C 2.66; T 2.08; E 3.02; Y 1.33; N 2.92
T7: D 2.66; L 1.79; P 2.42; K 1.86; M 2.17; H 2.03; V 2.07; Y 1.47; I 2.45; Q 2.57; S 2.3; W 3.27; E 2.39; R 1.87; C 2.2; G 2.08; F 1.92; N 1.82; A 2.33
M6: Q 2.68; A 2.48; V 2.67; N 2.15; G 2.38; E 2.56; P 2.55; D 2.36; T 2.43; I 2.83; R 2.7; S 2.59; H 1.69; W 1.42; F 1.82; L 2.41; K 2.55; Y 1.98; C 2
K9: S 2.29; Q 2.9; G 2.51; E 3.29; H 1.84; Y 1.76; C 2.42; T 2.7; N 2.47; V 2.35; I 2.12; D 3.42; M 2.3; P 2.76; L 1.97; W 2.07; R 1.87; F 2.13; A 2.31
V13: C 2.14; A 2.76
Y11: T 3.17; E 3.98; D 3.77; L 2.75; R 2.56; P 3.14; M 2.98; G 3.23; K 3.14; S 3.03; W 1.7; V 3.22; Q 3.57; I 2.77; H 2.93; N 3.15; C 3.06; A 3.38; F 2.01
P5: L 1.89; K 2.36; C 2.31; S 2.69; H 2.74; V 2.14; G 2.51; D 2.72; F 2.77; Y 1.73; R 2.29; A 2.62; E 3.17; T 2.02; N 2.32; W 1.63; I 3.27; Q 2.84; M 2.79
